# Measurements from patent publication US20180155451A1 (published 2018).
# T1: FcγRIIa R (human FcγRIIa, allotype R, Arg at position 131), extracellular domain with C-terminal His tag (human, UniProt P12318 34-217)
# T1 construct: extracellular domain; expressed in FreeStyle293 cells; analyte in Biacore; also called 2aR; FcgRIIa R
# T1 sequence (looked up): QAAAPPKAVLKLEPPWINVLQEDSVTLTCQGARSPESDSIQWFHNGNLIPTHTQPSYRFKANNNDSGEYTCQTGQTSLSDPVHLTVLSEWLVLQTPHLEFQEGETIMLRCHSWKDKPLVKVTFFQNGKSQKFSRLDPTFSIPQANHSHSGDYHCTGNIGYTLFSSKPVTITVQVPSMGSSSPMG
# B1: GpH7-B3 variant Q295_06M/GpL16-k0 (antibody, human IgG1, kappa)
# heavy: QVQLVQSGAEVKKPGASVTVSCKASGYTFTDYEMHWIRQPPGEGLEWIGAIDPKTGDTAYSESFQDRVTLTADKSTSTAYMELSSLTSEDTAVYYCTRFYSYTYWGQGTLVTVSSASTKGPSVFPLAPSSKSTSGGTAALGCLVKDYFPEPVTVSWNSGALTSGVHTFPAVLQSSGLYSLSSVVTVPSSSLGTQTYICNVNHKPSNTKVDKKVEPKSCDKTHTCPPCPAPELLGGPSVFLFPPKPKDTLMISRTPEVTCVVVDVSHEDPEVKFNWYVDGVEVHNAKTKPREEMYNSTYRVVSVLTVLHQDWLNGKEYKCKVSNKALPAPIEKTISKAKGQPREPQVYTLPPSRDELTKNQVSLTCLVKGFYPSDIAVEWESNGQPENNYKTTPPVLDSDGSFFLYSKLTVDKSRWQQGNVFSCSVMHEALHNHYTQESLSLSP
# light: DIVMTQSPLSLPVTPGEPASISCQASESLVHSNRNTYLHWYLQKPGQSPQLLIYKVSNRFSGVPDRFSGSGSGTDFTLKISRVEAEDVGVYYCSQNTHVPPTFGQGTKVEIERTVAAPSVFIFPPSDEQLKSGTASVVCLLNNFYPREAKVQWKVDNALQSGNSQESVTEQDSKDSTYSLSSTLTLSKADYEKHKVYACEVTHQGLSSPVTKSFNRGEC
# notes: homodimerized antibody, mutation in both H chains; also called Ho Ab
# B2: GpH7-B3 variant Q295_10E/GpL16-k0 (antibody, human IgG1, kappa)
# heavy: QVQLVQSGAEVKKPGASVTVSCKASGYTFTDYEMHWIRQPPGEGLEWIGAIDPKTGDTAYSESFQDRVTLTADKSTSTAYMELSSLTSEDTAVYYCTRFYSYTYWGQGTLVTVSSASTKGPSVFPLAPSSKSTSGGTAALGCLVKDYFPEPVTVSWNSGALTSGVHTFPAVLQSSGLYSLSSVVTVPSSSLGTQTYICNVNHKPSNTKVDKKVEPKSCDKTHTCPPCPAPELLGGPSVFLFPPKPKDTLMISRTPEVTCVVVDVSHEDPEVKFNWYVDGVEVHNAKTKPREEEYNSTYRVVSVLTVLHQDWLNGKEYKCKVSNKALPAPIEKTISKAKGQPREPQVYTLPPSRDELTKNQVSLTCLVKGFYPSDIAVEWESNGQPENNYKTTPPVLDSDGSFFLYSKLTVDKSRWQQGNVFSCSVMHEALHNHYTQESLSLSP
# light: B1 light
# notes: as for B1
# B3: GpH7-B3 variant S239_06M/GpL16-k0 (antibody, human IgG1, kappa)
# heavy: not shown
# light: B1 light
# notes: as for B1
# B4: GpH7-B3 variant S239_07I/GpL16-k0 (antibody, human IgG1, kappa)
# heavy: not shown
# light: B1 light
# notes: as for B1
# B5: GpH7-B3 variant S239_14T/GpL16-k0 (antibody, human IgG1, kappa)
# heavy: not shown
# light: B1 light
# notes: as for B1
# B6: GpH7-B3 variant S267_06M/GpL16-k0 (antibody, human IgG1, kappa)
# heavy: not shown
# light: B1 light
# notes: as for B1
# B7: GpH7-B3 variant S267_09D/GpL16-k0 (antibody, human IgG1, kappa)
# heavy: not shown
# light: B1 light
# notes: as for B1
# B8: GpH7-B3 variant S267_19Q/GpL16-k0 (antibody, human IgG1, kappa)
# heavy: not shown
# light: B1 light
# notes: as for B1
# B9: GpH7-B3 variant S298_06M/GpL16-k0 (antibody, human IgG1, kappa)
# heavy: not shown
# light: B1 light
# notes: as for B1
# B10: GpH7-B3 variant S298_08L/GpL16-k0 (antibody, human IgG1, kappa)
# heavy: not shown
# light: B1 light
# notes: as for B1
# B11: GpH7-B3 variant S324_04F/GpL16-k0 (antibody, human IgG1, kappa)
# heavy: not shown
# light: B1 light
# notes: as for B1
# B12: GpH7-B3 variant S324_06M/GpL16-k0 (antibody, human IgG1, kappa)
# heavy: not shown
# light: B1 light
# notes: as for B1
# B13: GpH7-B3 variant S337_03V/GpL16-k0 (antibody, human IgG1, kappa)
# heavy: not shown
# light: B1 light
# notes: as for B1
# B14: GpH7-B3 variant S337_04F/GpL16-k0 (antibody, human IgG1, kappa)
# heavy: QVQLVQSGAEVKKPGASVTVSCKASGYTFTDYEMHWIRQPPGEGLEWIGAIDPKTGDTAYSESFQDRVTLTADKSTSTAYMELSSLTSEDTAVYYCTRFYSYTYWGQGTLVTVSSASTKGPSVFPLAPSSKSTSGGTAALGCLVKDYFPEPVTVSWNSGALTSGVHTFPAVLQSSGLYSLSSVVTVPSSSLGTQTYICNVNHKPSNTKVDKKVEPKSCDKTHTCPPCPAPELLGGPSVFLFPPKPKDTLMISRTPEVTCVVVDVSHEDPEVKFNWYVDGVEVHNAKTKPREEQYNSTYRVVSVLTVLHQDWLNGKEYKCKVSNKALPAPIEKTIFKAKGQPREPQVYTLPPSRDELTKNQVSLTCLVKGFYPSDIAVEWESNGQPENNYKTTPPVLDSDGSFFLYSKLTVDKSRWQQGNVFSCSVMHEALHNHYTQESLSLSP
# light: B1 light
# notes: as for B1
# B15: GpH7-B3 variant S337_06M/GpL16-k0 (antibody, human IgG1, kappa)
# heavy: not shown
# light: B1 light
# notes: as for B1
# B16: GpH7-B3 variant S337_07I/GpL16-k0 (antibody, human IgG1, kappa)
# heavy: not shown
# light: B1 light
# notes: as for B1
# B17: GpH7-B3 variant S337_08L/GpL16-k0 (antibody, human IgG1, kappa)
# heavy: not shown
# light: B1 light
# notes: as for B1
# B18: GpH7-B3 variant S337_09D/GpL16-k0 (antibody, human IgG1, kappa)
# heavy: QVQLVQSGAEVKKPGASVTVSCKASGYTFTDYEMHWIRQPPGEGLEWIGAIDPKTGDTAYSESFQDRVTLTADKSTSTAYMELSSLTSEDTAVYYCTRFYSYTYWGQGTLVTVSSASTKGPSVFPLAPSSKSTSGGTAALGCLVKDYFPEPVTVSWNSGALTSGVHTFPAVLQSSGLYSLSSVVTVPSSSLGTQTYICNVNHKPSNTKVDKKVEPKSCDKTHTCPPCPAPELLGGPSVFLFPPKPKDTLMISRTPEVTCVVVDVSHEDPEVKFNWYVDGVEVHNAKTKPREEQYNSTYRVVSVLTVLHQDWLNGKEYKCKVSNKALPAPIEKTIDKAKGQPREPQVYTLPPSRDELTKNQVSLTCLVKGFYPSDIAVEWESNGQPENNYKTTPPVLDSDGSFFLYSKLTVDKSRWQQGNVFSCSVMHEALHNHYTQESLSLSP
# light: B1 light
# notes: as for B1
# B19: GpH7-B3 variant S337_10E/GpL16-k0 (antibody, human IgG1, kappa)
# heavy: not shown
# light: B1 light
# notes: as for B1
# B20: GpH7-B3 variant S337_11K/GpL16-k0 (antibody, human IgG1, kappa)
# heavy: not shown
# light: B1 light
# notes: as for B1
# B21: GpH7-B3 variant S337_12R/GpL16-k0 (antibody, human IgG1, kappa)
# heavy: not shown
# light: B1 light
# notes: as for B1
# B22: GpH7-B3 variant S337_15Y/GpL16-k0 (antibody, human IgG1, kappa)
# heavy: not shown
# light: B1 light
# notes: as for B1
# B23: GpH7-B3 variant S337_16H/GpL16-k0 (antibody, human IgG1, kappa)
# heavy: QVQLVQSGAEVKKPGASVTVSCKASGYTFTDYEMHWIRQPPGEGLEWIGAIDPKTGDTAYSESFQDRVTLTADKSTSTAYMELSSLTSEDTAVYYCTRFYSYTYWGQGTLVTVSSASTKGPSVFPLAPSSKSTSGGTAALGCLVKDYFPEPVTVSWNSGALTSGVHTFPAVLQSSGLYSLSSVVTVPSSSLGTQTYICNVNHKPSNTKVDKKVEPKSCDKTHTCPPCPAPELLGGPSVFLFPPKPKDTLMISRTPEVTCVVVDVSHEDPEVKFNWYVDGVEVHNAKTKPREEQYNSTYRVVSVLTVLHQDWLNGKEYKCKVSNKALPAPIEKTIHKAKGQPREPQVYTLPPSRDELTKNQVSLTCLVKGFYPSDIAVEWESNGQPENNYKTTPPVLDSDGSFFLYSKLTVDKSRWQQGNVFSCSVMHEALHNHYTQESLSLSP
# light: B1 light
# notes: as for B1
# B24: GpH7-B3 variant S337_18N/GpL16-k0 (antibody, human IgG1, kappa)
# heavy: not shown
# light: B1 light
# notes: as for B1
# B25: GpH7-B3 variant S337_19Q/GpL16-k0 (antibody, human IgG1, kappa)
# heavy: not shown
# light: B1 light
# notes: as for B1
# B26: GpH7-B3 variant S337_20W/GpL16-k0 (antibody, human IgG1, kappa)
# heavy: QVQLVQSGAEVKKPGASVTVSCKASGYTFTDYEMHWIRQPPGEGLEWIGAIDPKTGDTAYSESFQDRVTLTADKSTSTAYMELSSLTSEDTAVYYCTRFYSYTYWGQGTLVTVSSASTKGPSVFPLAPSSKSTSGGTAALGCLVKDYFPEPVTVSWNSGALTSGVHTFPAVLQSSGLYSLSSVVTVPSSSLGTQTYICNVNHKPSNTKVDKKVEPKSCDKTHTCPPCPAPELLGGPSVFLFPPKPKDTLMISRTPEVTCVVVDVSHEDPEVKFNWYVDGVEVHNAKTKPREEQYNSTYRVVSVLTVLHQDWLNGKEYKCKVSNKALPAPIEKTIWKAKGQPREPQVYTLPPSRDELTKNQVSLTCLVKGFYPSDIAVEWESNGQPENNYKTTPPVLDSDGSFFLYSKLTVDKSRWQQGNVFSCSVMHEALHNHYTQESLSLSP
# light: B1 light
# notes: as for B1
# B27: GpH7-B3 variant T335_01G/GpL16-k0 (antibody, human IgG1, kappa)
# heavy: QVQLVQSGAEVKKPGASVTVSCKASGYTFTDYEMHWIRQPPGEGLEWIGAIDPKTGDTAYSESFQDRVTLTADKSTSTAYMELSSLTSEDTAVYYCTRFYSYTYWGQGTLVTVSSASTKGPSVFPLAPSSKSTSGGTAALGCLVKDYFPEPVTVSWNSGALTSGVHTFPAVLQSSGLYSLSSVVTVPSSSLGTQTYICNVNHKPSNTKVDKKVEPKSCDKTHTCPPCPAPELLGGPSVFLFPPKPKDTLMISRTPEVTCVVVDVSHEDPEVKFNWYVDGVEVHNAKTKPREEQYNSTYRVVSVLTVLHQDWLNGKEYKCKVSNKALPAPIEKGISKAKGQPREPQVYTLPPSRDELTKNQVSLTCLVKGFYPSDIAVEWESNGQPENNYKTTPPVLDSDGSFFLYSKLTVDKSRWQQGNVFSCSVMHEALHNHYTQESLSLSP
# light: B1 light
# notes: as for B1
# B28: GpH7-B3 variant T335_02A/GpL16-k0 (antibody, human IgG1, kappa)
# heavy: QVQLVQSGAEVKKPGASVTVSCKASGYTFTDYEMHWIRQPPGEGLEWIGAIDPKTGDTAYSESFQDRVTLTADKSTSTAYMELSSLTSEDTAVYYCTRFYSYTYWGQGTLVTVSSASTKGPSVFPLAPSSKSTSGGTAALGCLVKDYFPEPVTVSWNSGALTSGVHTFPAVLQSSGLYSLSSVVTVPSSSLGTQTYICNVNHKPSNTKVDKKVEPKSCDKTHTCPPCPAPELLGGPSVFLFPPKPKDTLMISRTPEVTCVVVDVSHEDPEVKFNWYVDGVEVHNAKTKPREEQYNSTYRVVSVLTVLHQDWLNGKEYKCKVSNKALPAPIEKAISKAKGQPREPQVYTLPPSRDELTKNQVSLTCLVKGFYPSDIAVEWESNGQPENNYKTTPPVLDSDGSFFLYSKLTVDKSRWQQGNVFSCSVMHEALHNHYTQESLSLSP
# light: B1 light
# notes: as for B1
# B29: GpH7-B3 variant T335_05P/GpL16-k0 (antibody, human IgG1, kappa)
# heavy: not shown
# light: B1 light
# notes: as for B1
# B30: GpH7-B3 variant T335_07I/GpL16-k0 (antibody, human IgG1, kappa)
# heavy: not shown
# light: B1 light
# notes: as for B1
# B31: GpH7-B3 variant T335_10E/GpL16-k0 (antibody, human IgG1, kappa)
# heavy: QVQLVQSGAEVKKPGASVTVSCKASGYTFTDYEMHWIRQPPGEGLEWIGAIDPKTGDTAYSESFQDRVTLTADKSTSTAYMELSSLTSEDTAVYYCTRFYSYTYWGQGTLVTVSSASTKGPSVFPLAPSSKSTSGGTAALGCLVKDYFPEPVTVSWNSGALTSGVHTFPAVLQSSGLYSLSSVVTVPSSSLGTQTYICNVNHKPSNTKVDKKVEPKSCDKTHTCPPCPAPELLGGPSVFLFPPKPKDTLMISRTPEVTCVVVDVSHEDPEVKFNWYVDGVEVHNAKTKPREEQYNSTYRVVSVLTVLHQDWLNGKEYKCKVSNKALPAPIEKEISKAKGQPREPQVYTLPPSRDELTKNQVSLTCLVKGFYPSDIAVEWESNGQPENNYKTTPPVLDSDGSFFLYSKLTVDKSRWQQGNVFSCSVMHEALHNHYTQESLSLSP
# light: B1 light
# notes: as for B1
# B32: GpH7-B3 variant T335_12R/GpL16-k0 (antibody, human IgG1, kappa)
# heavy: not shown
# light: B1 light
# notes: as for B1
# B33: GpH7-B3 variant T335_13S/GpL16-k0 (antibody, human IgG1, kappa)
# heavy: not shown
# light: B1 light
# notes: as for B1
# B34: GpH7-B3 variant T335_15Y/GpL16-k0 (antibody, human IgG1, kappa)
# heavy: not shown
# light: B1 light
# notes: as for B1
# B35: GpH7-B3 variant T335_16H/GpL16-k0 (antibody, human IgG1, kappa)
# heavy: not shown
# light: B1 light
# notes: as for B1
# B36: GpH7-B3 variant T335_18N/GpL16-k0 (antibody, human IgG1, kappa)
# heavy: not shown
# light: B1 light
# notes: as for B1
# B37: GpH7-B3 variant T335_19Q/GpL16-k0 (antibody, human IgG1, kappa)
# heavy: not shown
# light: B1 light
# notes: as for B1
# B38: GpH7-B3 variant T335_20W/GpL16-k0 (antibody, human IgG1, kappa)
# heavy: not shown
# light: B1 light
# notes: as for B1
# B39: GpH7-B3 variant V266_06M/GpL16-k0 (antibody, human IgG1, kappa)
# heavy: not shown
# light: B1 light
# notes: as for B1
# B40: GpH7-B3 variant Y296_04F/GpL16-k0 (antibody, human IgG1, kappa)
# heavy: not shown
# light: B1 light
# notes: as for B1
# B41: GpH7-B3 variant Y296_06M/GpL16-k0 (antibody, human IgG1, kappa)
# heavy: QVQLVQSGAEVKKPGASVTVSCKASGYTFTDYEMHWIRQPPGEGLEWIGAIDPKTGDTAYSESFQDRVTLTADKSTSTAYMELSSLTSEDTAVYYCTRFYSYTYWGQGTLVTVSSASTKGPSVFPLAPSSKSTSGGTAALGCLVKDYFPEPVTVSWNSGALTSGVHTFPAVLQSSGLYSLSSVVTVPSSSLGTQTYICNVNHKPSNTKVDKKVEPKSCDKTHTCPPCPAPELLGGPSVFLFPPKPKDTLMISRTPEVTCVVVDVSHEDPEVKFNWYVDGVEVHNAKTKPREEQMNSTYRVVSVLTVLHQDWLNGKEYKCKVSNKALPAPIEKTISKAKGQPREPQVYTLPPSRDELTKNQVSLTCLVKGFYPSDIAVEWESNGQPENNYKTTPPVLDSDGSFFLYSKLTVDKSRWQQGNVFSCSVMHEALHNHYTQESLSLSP
# light: B1 light
# notes: as for B1
# B42: GpH7-B3 variant Y296_07I/GpL16-k0 (antibody, human IgG1, kappa)
# heavy: not shown
# light: B1 light
# notes: as for B1
# B43: GpH7-B3 variant Y296_09D/GpL16-k0 (antibody, human IgG1, kappa)
# heavy: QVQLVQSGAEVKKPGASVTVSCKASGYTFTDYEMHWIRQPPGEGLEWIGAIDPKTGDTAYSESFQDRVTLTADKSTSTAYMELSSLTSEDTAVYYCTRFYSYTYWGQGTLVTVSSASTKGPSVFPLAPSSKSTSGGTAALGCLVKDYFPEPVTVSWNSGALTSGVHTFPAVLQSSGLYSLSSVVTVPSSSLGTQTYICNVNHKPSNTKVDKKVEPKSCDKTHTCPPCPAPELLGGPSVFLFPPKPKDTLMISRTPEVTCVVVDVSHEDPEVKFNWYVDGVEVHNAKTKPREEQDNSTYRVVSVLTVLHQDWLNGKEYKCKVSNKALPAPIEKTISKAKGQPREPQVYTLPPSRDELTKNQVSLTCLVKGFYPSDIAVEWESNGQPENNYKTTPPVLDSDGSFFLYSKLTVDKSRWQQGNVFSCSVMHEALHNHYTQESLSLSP
# light: B1 light
# notes: as for B1
# B44: GpH7-B3 variant Y296_10E/GpL16-k0 (antibody, human IgG1, kappa)
# heavy: not shown
# light: B1 light
# notes: as for B1
# Target: T1, FcγRIIa R (human FcγRIIa, allotype R, …)
# Experiment: SPR (Biacore), relative binding vs GpH7-B3/GpL16-k0
# Description: Analysis of interaction between objective antibody and the FcγR was carried out using Biacore T100 (GE Healthcare). HBS-EP+ (GE Healthcare) was used as the running buffer, and the measurement temperature was set to 25° C. Chips produced by immobilizing the antigen peptide by the amine coupling method to a Series S Sencor Chip CM5 (GE Healthcare), or alternatively, chips produced by allowing preliminarily biotinylated antigen peptides to interact with and immobilize onto a Series S Sensor Chip SA (certified) (GE Healthcare) were used. Antibodies of interest were captured onto an antigen peptide-immobilized chip, and allowed to interact to each FcγR diluted with running buffer. To regenerate and repeatedly use the chip, the antibodies captured on the chip were washed off by reacting 10 mM glycine-HCl, pH 1.5.
# The FcγR-binding activity of each antibody was assessed primarily using as an indicator the FcγR-binding activity and dissociation constant for FcγR.
row,Binder,Ho/Con_2aR
1,B1,"93.9 relative, control = 100"
2,B2,"99.2 relative, control = 100"
3,B3,"82.9 relative, control = 100"
4,B4,"85.3 relative, control = 100"
5,B5,"92.3 relative, control = 100"
6,B6,"102 relative, control = 100"
7,B7,"167 relative, control = 100"
8,B8,"110 relative, control = 100"
9,B9,"102 relative, control = 100"
10,B10,"101 relative, control = 100"
11,B11,"101 relative, control = 100"
12,B12,"118 relative, control = 100"
13,B13,"102 relative, control = 100"
14,B14,"98.3 relative, control = 100"
15,B15,"101 relative, control = 100"
16,B16,"103 relative, control = 100"
17,B17,"99.4 relative, control = 100"
18,B18,"114 relative, control = 100"
19,B19,"110 relative, control = 100"
20,B20,"94.6 relative, control = 100"
21,B21,"100 relative, control = 100"
22,B22,"100 relative, control = 100"

row,Binder,Ho/Con_2aR
1,B23,"107 relative, control = 100"
2,B24,"103 relative, control = 100"
3,B25,"102 relative, control = 100"
4,B26,"105 relative, control = 100"
5,B27,"97.7 relative, control = 100"
6,B28,"102 relative, control = 100"
7,B29,"104 relative, control = 100"
8,B30,"107 relative, control = 100"
9,B31,"109 relative, control = 100"
10,B32,"94 relative, control = 100"
11,B33,"102 relative, control = 100"
12,B34,"107 relative, control = 100"
13,B35,"102 relative, control = 100"
14,B36,"100 relative, control = 100"
15,B37,"102 relative, control = 100"
16,B38,"101 relative, control = 100"
17,B39,"146 relative, control = 100"
18,B40,"106 relative, control = 100"
19,B41,"84 relative, control = 100"
20,B42,"83.1 relative, control = 100"
21,B43,"94.5 relative, control = 100"
22,B44,"90.2 relative, control = 100"
